Assay results as given in patent US5731183.

Tests used:
dimethylcasein [1] = biological target: dimethylcasein
dimethylcasein [2] = biological target: dimethylcasein; remark: listed apart in the source
dimethylcasein [3] = biological target: dimethylcasein; remark: listed apart in the source

Bacillus subtilis AJ12866-derived transglutaminase (enzyme)
Relative Activity (14C-putrescine bonded to dimethylcasein, 37° C., 30 minutes) (relative activity) (dimethylcasein [1]): 10200

fused protein of an 11-residue lacZ-derived peptide and the Bacillus-derived TG, expressed from pBSTG75-11 in Escherichia coli JM109 (enzyme)
TG activity (dpm) (14C-putrescine caught by dimethylcasein) (dimethylcasein [2]): 496 dpm

B1: Bacillus subtilis AJ1307-derived transglutaminase (enzyme)
chain: MIIVSGQLLRPQDIENWQIDQNLNPLLKEMIETPVQFDYHSIAELMFELKLRMNIVAAAKTLHKSGAKFATFLKTYGNTTYWRVSPEGALELKYRMPPSKAIRDIAENGPFYAFECATAIVIIYYLALIDTIGEDKFNASFDRIILYDWHYEKLPIYTETGHHFFLGDCLYFKNPEFDPQKAQWRGENVILLGEDKYFAHGLGILNGKQIIDKLNSFRKKGALQSAYLLSQATRLDVPSLFR
relative TG activity (14C-putrescine bonded to dimethylcasein, 37° C., pH 7.5) (dpm/mg/30 min) (dimethylcasein [3]): 25000
